Measurements taken from patent publication US20060067886A1, “Gastrin receptor-avid peptide conjugates” (priority 1997, published 2006).
Several values for one entry are separate records, joined by “and”; a condition that tells them apart may be missing. Equal entries are not always repeated.

Assays:
[1] = Stability of 177Lu conjugate (RCP, HPLC recovery); format: physicochemical; details: wide range of pH values, 24 hours
Method: Under identical chromatographic conditions, DOTA-8-Aoc-BBN[7-14]NH2 has a retention time of 20.5 minutes, allowing for peak purification of the radiolabeled conjugate.
To 50 μl (3.4×10^−8 mols) of DOTA-8-Aoc-BBN[7-14]NH2 in 50 μL of 0.2M Ammonium Acetate was added 150 μL of 0.4M Ammonium Acetate. To this solution was added 50 μL of 177LuCl3 (2 mCi in 0.05N HCl, Missouri University Research Reactor). The solution was allowed to incubate at […] for 1 hour, after which […] of 0.002M EDTA was added in order to scavenge uncomplexed Lutetium. Quality control of the final product was determined by reversed-phase HPLC. Peak purification of the labeled species was performed by collecting the sample from the HPLC eluant, into a solution of 1 mg/mL bovine serum albumin/0.1M Na2HPO4. All further analyses were carried out using the HPLC-purified products.
HPLC analysis of each of the new compounds was performed using an analytical C-18 reversed phase column (Phenomenex, 250×4.6 mm, 5 μm). The mobile phase consisted of a linear gradient system, with solvent A corresponding to 100% water with 0.1% trifluoroacetic acid and solvent B corresponding to 100% acetonitrile with 0.1% trifluoroacetic acid. […]

[2] = tested on: PC-3 human tumor xenografts; assay: in vivo
[3] = Biodistribution of radiometal-DOTA-BBN conjugates in CF1 normal mice; details: 1 hour post-injection

## CSCC[C@H](NC(=O)[C@H](CC(C)C)NC(=O)[C@H](Cc1cnc[nH]1)NC(=O)CNC(=O)[C@@H](NC(=O)[C@H](C)NC(=O)[C@H](Cc1c[nH]c2ccccc12)NC(=O)[C@H](CCC(N)=O)NC(=O)CCCCCCCNC(=O)CN1CCN(CC(=O)O)CCN(CC(=O)O)CCN(CC(=O)O)CC1)C(C)C)C(N)=O [177Lu-DOTA-8-Aoc-BBN[7-14]NH2] [metal not drawn]
[1]
  stability of the conjugate (RCP): stability of the conjugate over a wide range of pH values over a time course of 24 hours
[2]; 1 hr
  Avg % ID, Blood: 0.62±0.44 % ID
  Avg % ID, Carcass: 6.18 ± 1.01 % ID
  Avg % ID, L. Intestine: 3.64 ± 0.72 % ID
  Avg % ID, Muscle: 0.01 + 0.02 % ID
  Avg % ID, Pancreas: 9.70 ± 1.12 % ID
  Avg % ID, S. Intestine: 8.20 ± 1.72 % ID
  Avg % ID, Stomach: 0.61 ± 0.09 % ID
  Avg % ID, Tumor: 1.15 ± 0.72 % ID
  Avg % ID, Urine: 67.41±2.45 % ID
  Avg % ID/gm, Heart: 0.15 ± 0.22 % ID/gm
  Avg % ID/gm, Kidney: 4.70 ± 0.95 % ID/gm
  Avg % ID/gm, L. Intestine: 3.29 ± 0.61 % ID/gm
  Avg % ID/gm, Liver: 0.30 ± 0.05 % ID/gm
  Avg % ID/gm, Lung: 0.18 ± 0.09 % ID/gm
  Avg % ID/gm, Muscle: 0.11 ± 0.13 % ID/gm
  Avg % ID/gm, Pancreas: 38.53 ± 3.61 % ID/gm
  Avg % ID/gm, S. Intestine: 5.60 ± 0.46 % ID/gm
  Avg % ID/gm, Spleen: 0.33 ± 0.51 % ID/gm
  Avg % ID/gm, Stomach: 1.38 ± 0.52 % ID/gm
  Avg % ID/gm, Tumor: 4.22±1.09 % ID/gm
[2]; 4 hrs
  Avg % ID, Blood: 0.12 ± 0.11 % ID
  Avg % ID, Carcass: 2.52 ± 1.18 % ID
  Avg % ID, Heart: 0.01 + 0.02 % ID
  Avg % ID, Kidney: 0.61 ± 0.08 % ID
  Avg % ID, L. Intestine: 7.28 ± 4.23 % ID
  Avg % ID, Liver: 0.15 ± 0.03 % ID
  Avg % ID, Lung: 0.05 + 0.09 % ID
  Avg % ID, Muscle: 0.02 + 0.03 % ID
  Avg % ID, Pancreas: 5.23 ± 1.68 % ID
  Avg % ID, S. Intestine: 2.51 ± 0.75 % ID
  Avg % ID, Spleen: 0.05 ± 0.02 % ID
  Avg % ID, Stomach: 0.22 ± 0.06 % ID
  Avg % ID, Tumor: 0.78 ± 0.27 % ID
  Avg % ID, Urine: 79.76 ± 6.48 % ID
  Avg % ID/gm, Blood: 0.08 ± 0.07 % ID/gm
  Avg % ID/gm, Heart: 0.07 ± 0.13 % ID/gm
  Avg % ID/gm, Kidney: 2.18 ± 0.31 % ID/gm
  Avg % ID/gm, L. Intestine: 7.29 ± 3.73 % ID/gm
  Avg % ID/gm, Liver: 0.13 ± 0.02 % ID/gm
  Avg % ID/gm, Lung: 0.11 ± 0.15 % ID/gm
  Avg % ID/gm, Muscle: 0.15 ± 0.21 % ID/gm
  Avg % ID/gm, Pancreas: 22.18 ± 4.66 % ID/gm
  Avg % ID/gm, S. Intestine: 1.93 ± 0.96 % ID/gm
  Avg % ID/gm, Spleen: 0.60 ± 0.36 % ID/gm
  Avg % ID/gm, Stomach: 0.34 ± 0.34 % ID/gm
  Avg % ID/gm, Tumor: 3.03±0.91 % ID/gm
[2]; 24 hrs
  Avg % ID, Blood: 0.01 + 0.02 % ID
  Avg % ID, Carcass: 2.08 + 3.14 % ID
  Avg % ID, Kidney: 0.17 ± 0.06 % ID
  Avg % ID, L. Intestine: 1.75 ± 0.23 % ID
  Avg % ID, Muscle: 0.02 + 0.03 % ID
  Avg % ID, Pancreas: 1.31 ± 0.45 % ID
  Avg % ID, S. Intestine: 0.67 ± 0.12 % ID
  Avg % ID, Spleen: 0.01 + 0.01 % ID
  Avg % ID, Stomach: 0.09 ± 0.06 % ID
  Avg % ID, Tumor: 0.29 ± 0.18 % ID
  Avg % ID, Urine: 85.9±1.4 % ID and 85.85 ± 1.39 % ID
  Avg % ID/gm, Blood: 0.01 ± 0.01 % ID/gm
  Avg % ID/gm, Heart: 0.06 ± 0.09 % ID/gm
  Avg % ID/gm, Kidney: 0.60 ± 0.20 % ID/gm
  Avg % ID/gm, L. Intestine: 1.90 ± 0.53 % ID/gm
  Avg % ID/gm, Lung: 0.14 ± 0.26 % ID/gm
  Avg % ID/gm, Muscle: 0.10 ± 0.17 % ID/gm
  Avg % ID/gm, Pancreas: 4.97 ± 2.28 % ID/gm
  Avg % ID/gm, S. Intestine: 0.48 ± 0.14 % ID/gm
  Avg % ID/gm, Spleen: 0.08 ± 0.10 % ID/gm
  Avg % ID/gm, Stomach: 0.19 ± 0.13 % ID/gm
  Avg % ID/gm, Tumor: 1.54±1.14 % ID/gm
[3]
  Avg % ID, Blood: 0.20 ± 0.15 % ID
  Avg % ID, Carcass: 4.95 ± 1.41 % ID
  Avg % ID, Heart: 0.02 ± 0.04 % ID
  Avg % ID, Kidney: 1.62 ± 0.14 % ID
  Avg % ID, L. Intestine: 4.63 ± 0.57 % ID
  Avg % ID, Liver: 0.31 ± 0.05 % ID
  Avg % ID, Muscle: 0.02 ± 0.05 % ID
  Avg % ID, Pancreas: 7.01 ± 1.42 % ID
  Avg % ID, S. Intestine: 9.55 ± 2.37 % ID
  Avg % ID, Spleen: 0.16 ± 0.05 % ID
  Avg % ID, Stomach: 0.51 ± 0.15 % ID
  Avg % ID/gm, Blood: 0.14 ± 0.10 % ID/gm
  Avg % ID/gm, Heart: 0.19 ± 0.36 % ID/gm
  Avg % ID/gm, Kidney: 4.97 ± 0.71 % ID/gm
  Avg % ID/gm, L. Intestine: 6.17 ± 0.79 % ID/gm
  Avg % ID/gm, Liver: 0.23 ± 0.05 % ID/gm
  Avg % ID/gm, Lung: 0.20 ± 0.21 % ID/gm
  Avg % ID/gm, Muscle: 0.17 ± 0.39 % ID/gm
  Avg % ID/gm, Pancreas: 30.83 ± 1.89 % ID/gm
  Avg % ID/gm, S. Intestine: 6.47 ± 1.24 % ID/gm
  Avg % ID/gm, Spleen: 1.23 ± 0.59 % ID/gm
  Avg % ID/gm, Stomach: 1.41 ± 0.44 % ID/gm
